In paper PMC6127989, “Cytosolic GAPDH as a redox-dependent regulator of energy metabolism” (BMC Plant Biology, 2018):
Values belong to the binder of their own block, whether it stands above or below them.

Columns and labels:
Settings in all cases: both partners purified
[1] = target: T1, reduced recombinant GapC1 (cytosolic NAD-dependent glyceraldehyde-3-phosphate dehydrogenase) from A. thaliana (A. thaliana, UniProt P25858 1-338); assay: reflectance interferometry (RIf); GapC1 (or the control mCitrine) immobilised via NHS on a PEG surface; Trx-h3 injected at different concentrations; 20 mM HBS-buffer (100 mM NaCl, 0.01% Triton X-100, pH 7.5) with 2 mM DTT; KD from equilibrium binding signals by Scatchard plot
T1 construct: GapC1, cytosolic NAD-dependent glyceraldehyde-3-phosphate dehydrogenase, Arabidopsis thaliana, At3g04120; Used as analyte on VDAC3 (pre-treated with 2 mM DTT) and immobilised via NHS in buffer with 2 mM DTT for Trx-h3; also called reduced GapC1; GAPDH; source: desalted before use; pre-treated with 2 mM DTT
T1 sequence (P25858 whole entry): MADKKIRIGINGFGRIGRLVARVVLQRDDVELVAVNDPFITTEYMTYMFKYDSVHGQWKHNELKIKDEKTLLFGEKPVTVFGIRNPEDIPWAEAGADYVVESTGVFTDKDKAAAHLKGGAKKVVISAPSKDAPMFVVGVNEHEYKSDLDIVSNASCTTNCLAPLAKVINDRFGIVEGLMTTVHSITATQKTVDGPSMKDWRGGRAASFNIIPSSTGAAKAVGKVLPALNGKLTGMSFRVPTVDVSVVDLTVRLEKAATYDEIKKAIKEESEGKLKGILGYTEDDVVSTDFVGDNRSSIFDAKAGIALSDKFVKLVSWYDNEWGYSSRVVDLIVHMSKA

[2] = target: T1, reduced recombinant GapC1 (cytosolic …); assay: reflectance interferometry (RIf); VDAC3 in a polymer-supported DOPC membrane on the chip; GapC1 pre-treated with 2 mM DTT (reduced) injected at different amounts in a flow chamber; rinsing with HBS buffer; association and dissociation phases fitted separately; protein-free lipid membrane as negative control
[3] = target: T2, oxidized recombinant GapC1 from A. thaliana (pretreated with 0.5 mM H2O2 + 0.5 mM GSH) (A. thaliana, UniProt P25858 1-338, oxidized by pretreatment with 0.5 mM H2O2 + 0.5 mM GSH; modified residues not stated for this sample); assay: reflectance interferometry (RIf); VDAC3 in a polymer-supported DOPC membrane on the chip; GapC1 pre-treated with 0.5 mM H2O2 + 0.5 mM GSH (oxidized) injected at different amounts in a flow chamber; rinsing with HBS buffer; association and dissociation phases fitted separately; protein-free lipid membrane as negative control
T2 construct: GapC1, cytosolic NAD-dependent glyceraldehyde-3-phosphate dehydrogenase, Arabidopsis thaliana, At3g04120; Same recombinant protein as m1, oxidised in vitro; also called oxidized GapC1; source: desalted before use; pre-treated with 0.5 mM H2O2 + 0.5 mM GSH
T2 sequence (P25858 whole entry): as above

Kd [1]: 40 µM
B1: recombinant thioredoxin Trx-h3 from A. thaliana (natural protein, UniProt Q42403 1-118, looked up)
chain: MAAEGEVIACHTVEDWTEKLKAANESKKLIVIDFTATWCPPCRFIAPVFADLAKKHLDVVFFKVDVDELNTVAEEFKVQAMPTFIFMKEGEIKETVVGAAKEEIIANLEKHKTVVAAA
notes: Thioredoxin h3 (Trx-h3), Arabidopsis thaliana

Kd [2]: 236 nM
Kd [3]: 556 nM
B2: recombinant voltage-dependent anion-selective channel VDAC3 from A. thaliana, reconstituted in a lipid bilayer (natural protein, UniProt Q9SMX3 1-274, looked up)
chain: MVKGPGLYTEIGKKARDLLYRDYQGDQKFSVTTYSSTGVAITTTGTNKGSLFLGDVATQVKNNNFTADVKVSTDSSLLTTLTFDEPAPGLKVIVQAKLPDHKSGKAEVQYFHDYAGISTSVGFTATPIVNFSGVVGTNGLSLGTDVAYNTESGNFKHFNAGFNFTKDDLTASLILNDKGEKLNASYYQIVSPSTVVGAEISHNFTTKENAITVGTQHALDPLTTVKARVNNAGVANALIQHEWRPKSFFTVSGEVDSKAIDKSAKVGIALALKP
notes: VDAC3, mitochondrial outer membrane voltage-dependent anion-selective channel 3, Arabidopsis thaliana; cDNA cloned into pCold I with SacI and XbaI; Protein:lipid 1:1000 in DOPC; formed a polymer-supported membrane on the RIf chip; The tag is inferred from the vector; also called AtVDAC3
